In patent US20110124556 (published 2011):
Non-standard residues stand in square brackets, D forms with d. No end group written: not given here. *: point of attachment. Biotin = O=C1N[C@H]2[C@H](CS[C@H]2CCCCC(=O)*)N1; Bpa = N[C@@H](Cc1ccc(C(=O)c2ccccc2)cc1)C(=O)O

Molecular target: T1, human insulin receptor (HIR) (human, UniProt P06213)
Assay: competition

Binder | Kd [nM]
MADYKDDDDKWLDQEWAWVQCEVYGRGCPSAAAGAPVPYPDPLEPRPG [RB540 (D8)] | ~100

Molecular target: T1, human insulin receptor (HIR)
Assay: competition
Remark: another data set of the same source

Binder | Kd [nM]
TGHRLGLDEQFYWWFRDALSG [S265] | 110
PLCFLQELFGGASLGGYCSG [S262] | 19000
S217 (peptide) chain 1: SDGFYNAIELLS chain 2: SDGFYNAIELLS | 3900
S563 (cysteine pairing not given here) chain 1: SLEEEWAQIQCEVWG chain 2: R[dN][dC]SESFYDWFERQL | 0.014
S252 (listing feature) chain 1: SDGFYNAIELLSX chain 2: SDGFYNAIELLSX | 440
ANFYDWFVAELG [S242] | 20000
LDQEWAWVQSEVYGRGSPSESFYDWFERQL [S509] | 5.7
LAQEWAWVQCEVYGRGCPSESFYDWFERQL [S495] | 2.6
HETFYSMIRSLAK [S117] | 27
S546 (not fully specified (bridges); cysteine pairing not given here; also: chains 1 and 2 form one continuous chain) chain 1: SLEEEWAQVECEV chain 2: [Bpa]GRGCPSGSLDESFYDWFERQ[Bpa]GK(Biotin) | 26
QLEEEWAGVQCEVYGRECPS [S226] | 16000
HDPFYSMMKSLLK [S120] | 20
S255 (listing feature) chain 1: SDGFYNAIELLSGGGX chain 2: SDGFYNAIELLSGGGX | 16
SLEEEWAWVECEVYGRGCPSGSLDESFYDWFERQL [S532] | 0.037
HHHHHHKLDQEWAWVQCEVYGRGCPSESFYDWFERQLG [S481] | 1.3
IQGWEPFYGWFDDVVAQMFEE [S264] | 190
SIEEEWAQIKCDVWGRGCPSESFYDWFERQL [S517] | 0.006
SLEEEWAQIECEVWGRGCSGSLDESFYDWFERQL [S561] | 0.018
SGSLDESFYDWFERQLGKK [S372] | 200
FHENFYDWAVRQVSKK [S223] | > 2000
PLRESRNFYDWFVQQLE [S366] | 370
S440 (peptide) chain 1: ESFYDWFERQLGGGGK chain 2: EWAWVQCEVYGRGCPS | 99
S233 (listing feature) chain 1: FHENFYDWFVRQVSKKX chain 2: SDGFYNAIELLSX | 260
